Experimental data as given in patent US20030199671A1, “Binding molecules for Fc-region polypeptides” (priority 2001, published 2003).
Read-outs that look alike come from different tables or passages of the source. Non-standard residues stand in square brackets, D forms with d. Nle = CCCC[C@H](N)C(=O)O

Key:
Format in all cases: binding
[1] = biological target: IgG3 (Homo sapiens, UniProt P01860); design: all human subtypes derived from myeloma patients; purchased Calbiochem 400124; host or cells: myeloma patients
Procedure: (§1) In addition, the following targets, all unfractionated IgGs, were also evaluated with selected immobilized peptides for species specificity characterization in a similar format: human IgG, goat IgG, bovine IgG, and mouse IgG (Sigma, product nos. I4506, I5256, I5506, and I15381, respectively). In addition, 10 μl aliquots of hydrolyzed NHS-activated Sepharose 4 Fast Flow (Amersham Pharmacia Biotech, product no. 17-0906-01) and immobilized recombinant Protein A (RepliGen Corp., product no. IPA-400) were also assayed as negative and positive controls. IgG targets were diluted into 10 mM phosphate buffer containing 150 mM NaCl and 0.01% Tween 20, pH 7.2 (PBST) or 50 mM Tris buffer containing, 150 mM NaCl and 0.01% Tween-20, pH 7.5 (TBST). Batch (static) binding and elution studies were conducted in a 96-well assay filterplate (Millipore MultiScreen-HV, with 0.45 μm Durapore membrane, product no. MAHVN4510). The target was allowed to incubate with the resin for 1-1.5 hours with shaking at room temperature. Unbound target was collected by centrifugation of samples from the assay plate directly into a low-UV absorbing 96-well collection plate (Costar, product no. 3635 or Greiner, product no. 655801). The unbound target was then quantitated by reading the absorbance at 280 nm (normalized to 1 cm pathlength, 1.4 mg/ml A280 extinction coefficient) of the collection plate on a microplate spectrophotometer (Molecular Devices Corp., SPECTRAmax PLUS) against a buffer blank.
(§2) The percentage bound target was determined by subtracting the mass determined as unbound from the corresponding condition's control values (control non-filtered added directly to the collection plate and/or the negative control). The assay plate was washed (3×) with 200 μl of binding buffer by vacuum filtration followed by addition of 100 μl of various elution conditions (e.g.: 0.1 M sodium bicarbonate buffer, pH 8.5 and/or 0.1 M sodium citrate buffer, pH 4.0). After a 30-60 minute incubation with shaking at room temperature, the eluted target was collected by centrifugation of the assay plate into another collection plate and quantitated in a similar manner. Percent elution of total load was then determined to characterize elution recovery efficiency under various conditions. The assay plate was then washed (3×) with 200 μl of binding buffer by vacuum filtration followed by addition of a resin cleaning condition (e.g., 0.1M CAPS buffer (3-[Cyclohexylamino]-1-propane-sulfonic acid), pH 11.5, to regenerate the resin for re-use. Percentage mass balance determination was calculated to be 90-100% on average.

[2] = biological target: T1, human IgG1 (Homo sapiens, UniProt P01857)
T1 construct: all human subtypes derived from myeloma patients; purchased Calbiochem 400120; host or cells: myeloma patients
Procedure: as §1, §2

[3] = biological target: T2, human IgG2 (Homo sapiens, UniProt P01859)
T2 construct: all human subtypes derived from myeloma patients; purchased Calbiochem 400122; host or cells: myeloma patients
Procedure: as §1, §2

[4] = system: human IgG
Procedure: as §1, §2

[5] = biological target: IgG4 (Homo sapiens, UniProt P01861); design: all human subtypes derived from myeloma patients; purchased Calbiochem 400126; host or cells: myeloma patients
Procedure: as §1, §2

[6] = peptide immobilized on NHS activated sepharose 4 fast flow, target ligand density 2.0 μmole/ml, batch filterplate, hIgG3
[7] = peptide immobilized on NHS activated sepharose 4 fast flow, target ligand density 2.0 μmole/ml, batch filterplate, hIgG1
[8] = peptide immobilized on NHS activated sepharose 4 fast flow, target ligand density 2.0 μmole/ml, batch filterplate, hIgG2
[9] = peptide immobilized on NHS activated sepharose 4 fast flow, target ligand density 2.0 μmole/ml, batch filterplate, hIgG
[10] = peptide immobilized on NHS activated sepharose 4 fast flow, target ligand density 2.0 μmole/ml, batch filterplate, hIgG4
[11] = Table 20, average ligand density 1.9 μmole/ml

T1 sequence (P01857 1-330 isoform P01857-1): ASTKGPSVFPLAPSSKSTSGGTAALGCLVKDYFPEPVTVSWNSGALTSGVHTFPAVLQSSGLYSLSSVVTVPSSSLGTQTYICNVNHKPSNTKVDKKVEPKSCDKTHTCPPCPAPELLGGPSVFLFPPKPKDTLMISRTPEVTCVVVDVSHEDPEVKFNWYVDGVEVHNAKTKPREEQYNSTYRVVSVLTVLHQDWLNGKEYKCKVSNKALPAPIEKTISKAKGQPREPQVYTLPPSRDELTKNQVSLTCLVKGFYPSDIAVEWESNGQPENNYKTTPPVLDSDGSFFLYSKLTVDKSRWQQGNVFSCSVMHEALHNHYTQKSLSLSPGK
Chain of IgG3 (P01860 1-377 isoform P01860-1): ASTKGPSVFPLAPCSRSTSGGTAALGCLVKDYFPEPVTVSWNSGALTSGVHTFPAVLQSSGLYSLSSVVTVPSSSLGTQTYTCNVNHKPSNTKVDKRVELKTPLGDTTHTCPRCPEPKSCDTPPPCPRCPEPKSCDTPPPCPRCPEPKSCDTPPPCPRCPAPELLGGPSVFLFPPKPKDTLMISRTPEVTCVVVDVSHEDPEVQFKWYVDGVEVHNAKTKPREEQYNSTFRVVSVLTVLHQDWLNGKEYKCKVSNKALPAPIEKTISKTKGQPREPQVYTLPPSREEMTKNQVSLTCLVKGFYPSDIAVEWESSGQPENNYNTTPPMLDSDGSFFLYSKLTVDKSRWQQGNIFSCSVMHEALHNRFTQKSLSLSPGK
T2 sequence (P01859 1-326 isoform P01859-1): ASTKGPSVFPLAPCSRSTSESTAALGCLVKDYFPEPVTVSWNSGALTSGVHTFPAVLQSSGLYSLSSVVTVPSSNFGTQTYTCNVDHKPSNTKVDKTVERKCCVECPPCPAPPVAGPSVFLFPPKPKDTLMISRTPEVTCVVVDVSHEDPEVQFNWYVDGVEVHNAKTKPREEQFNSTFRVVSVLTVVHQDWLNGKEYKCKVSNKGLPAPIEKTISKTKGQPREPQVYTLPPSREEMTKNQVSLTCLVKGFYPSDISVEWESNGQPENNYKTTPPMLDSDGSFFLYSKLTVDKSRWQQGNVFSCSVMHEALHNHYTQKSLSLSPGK
Chain of IgG4 (P01861 1-327 isoform P01861-1): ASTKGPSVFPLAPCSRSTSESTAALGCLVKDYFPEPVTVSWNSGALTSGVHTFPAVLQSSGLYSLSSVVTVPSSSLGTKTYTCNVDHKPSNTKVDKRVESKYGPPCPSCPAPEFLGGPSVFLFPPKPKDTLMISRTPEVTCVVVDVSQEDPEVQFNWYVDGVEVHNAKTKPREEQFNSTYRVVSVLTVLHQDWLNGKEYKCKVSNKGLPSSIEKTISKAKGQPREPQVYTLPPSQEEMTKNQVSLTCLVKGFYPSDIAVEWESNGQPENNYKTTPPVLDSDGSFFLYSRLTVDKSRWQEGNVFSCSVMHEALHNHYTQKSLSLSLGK

Batch Binding (% Capture of Total Load) hIgG3 [1, 6] [%]	Batch Binding (% Capture of Total Load) hIgG1 [2, 7] [%]	Batch Binding (% Capture of Total Load) hIgG2 [3, 8] [%]	Batch Binding (% Capture of Total Load) hIgG [4, 9] [%]	Batch Binding (% Capture of Total Load) hIgG4 [5, 10] [%]	Batch Binding (% Capture of Total Load) hIgG3 [1, 11] [%]	Batch Binding (% Capture of Total Load) hIgG1 [2, 11] [%]	Batch Binding (% Capture of Total Load) hIgG2 [3, 11] [%]	Batch Binding (% Capture of Total Load) hIgG [4, 11] [%]	Batch Binding (% Capture of Total Load) hIgG4 [5, 11] [%]	further results	Substance
0	66	55	57	39							Ac-ACSRDWSGALVWCAGHEPGPEGGGK-NH2 (not fully specified (bridges); printed as Ac-ACSRDWSGALVWCAGHEPGPEGGGK-NH2; cysteine pairing not given here) [DX1142]
					0	70	63	73	39		Ac-ACVYTTWGELIWCDNHEPGPEGGGK-NH2 (not fully specified (bridges); printed as Ac-ACVYTTWGELIWCDNHEPGPEGGGK-NH2; cysteine pairing not given here) [DX1064]
					2	77	68	74	51	Binding properties / profile relative to parent peptide ([4]; batch filterplate, human IgG and subtypes): almost identical to those of DX249	Ac-CVYTTWGELIWCDNHEPGPEGGGK-NH2 (not fully specified (bridges); printed as Ac-CVYTTWGELIWCDNHEPGPEGGGK-NH2; cysteine pairing not given here) [DX1069]
					0	73	63	73	49		Ac-DHMCVYTTWGELIWCDNHEPGPEGGGK-NH2 (not fully specified (bridges); printed as Ac-DHMCVYTTWGELIWCDNHEPGPEGGGK-NH2; cysteine pairing not given here) [DX1062]
0	88	84	81	61							Ac-ECSRDWSGALVWCAGHEPGPEGGGK-NH2 (not fully specified (bridges); printed as Ac-ECSRDWSGALVWCAGHEPGPEGGGK-NH2; cysteine pairing not given here) [DX1144]
					0	73	63	71	45		Ac-EHMCVYTTWGELIWCDNHEPGPEGGGK-NH2 (not fully specified (bridges); printed as Ac-EHMCVYTTWGELIWCDNHEPGPEGGGK-NH2; cysteine pairing not given here) [DX1063]
0	17	9	21	2							Ac-ERACSRDWSGALVWCAGHEPGPEGGGK-NH2 (not fully specified (bridges); printed as Ac-ERACSRDWSGALVWCAGHEPGPEGGGK-NH2; cysteine pairing not given here) [DX1141]
										hIgG1 elution pH 3.0 (% of Total Load) ([2]; Table 13): 22%; hIgG2 elution pH 3.0 (% of Total Load) ([3]; Table 13): 42%; % IgG Capture - Batch Binding, Human IgG ([4]; Table 14, average ligand density 1.8 μM/ml): 91%; hIgG4 elution pH 3.0 (% of Total Load) ([5]; Table 13): 14%	Ac-GDWGECTVTSYGELIWCGGLEPGPEGGGK-NH2 (not fully specified (bridges); printed as Ac-GDWGECTVTSYGELIWCGGLEPGPEGGGK-NH2; cysteine pairing not given here) [DX1070]
0	88	83	81	55							Ac-TCSRDWSGALVWCAGHEPGPEGGGK-NH2 (not fully specified (bridges); printed as Ac-TCSRDWSGALVWCAGHEPGPEGGGK-NH2; cysteine pairing not given here) [DX1143]
0	74	63	66	42							Ac-VCSRDWSGALVWCAGHEPGPEGGGK-NH2 (not fully specified (bridges); printed as Ac-VCSRDWSGALVWCAGHEPGPEGGGK-NH2; cysteine pairing not given here) [DX1145]
					0	33	28	44	25		Ac-VCVYTTWGELIWCDNHEPGPEGGGK-NH2 (not fully specified (bridges); printed as Ac-VCVYTTWGELIWCDNHEPGPEGGGK-NH2; cysteine pairing not given here) [DX1067]
					0	33	25	36	21		Ac-[Nle]CVYTTWGELIWCDNHEPGPEGGGK-NH2 (not fully specified (bridges); printed as Ac-[Nle]CVYTTWGELIWCDNHEPGPEGGGK-NH2; cysteine pairing not given here) [DX1068]
